Series [1] can be described thus: Stability of 1- and 3-pHis peptides with and without pHis mAbs (BLI read-out). Type of series: physicochemical. Particulars: phosphorylated ACLYana, 0-24 h, no pHis mAbs; read-out BLI signal at end of association, normalized to 0 h. On the procedure:
Next, we examined the ability of these Fabs to recognize phosphorylated substrates using differential scanning fluorimetry (DSF).
Fig. S6. Stability of 1- and 3-pHis peptides in the presence of pHis mAbs. In the BLI experiment, analytes were SC50-3 (A and B) and SC44-8 (C and D) Fabs and ligand was the ACLYana peptide.
Prior to the experiment, the peptide was phosphorylated with phosphoramidate and divided into two sets - set A and set B. The set A peptide was incubated with 1- and 3-pHis mAbs separately for extended periods of time (0 - 24 h) and set B was not incubated with pHis mAbs. The ACLYana-pHis peptide incubated with the mixture of 1-pHis IgGs (A, continuous lines) and 3-pHis IgGs (C, continuous lines) has the higher signal intensity at all time points compared to […]
(discontinuous lines). The BLI signal intensity at the end of association phase was used to compare the rate of hydrolysis with (set A) and without incubation with pHis mAbs (set B). The signal intensities were normalized to the 0 h (B and D). The unphosphorylated peptide was used as a […]
the rate of dephosphorylation. In the absence of pHis mAb incubation, 1-pHis peptide hydrolyzed […]
(1 picture or pasted object on this page, not shown here)

Substrate in series [2]: SCS peptide, phosphorylated, 3-pHis form
The series can be described thus: BLI; N-terminally biotinylated peptides (20 nM) on streptavidin biosensors, varying concentrations of Fab in solution; 50 mM Hepes pH 8.0, 150 mM NaCl, 0.05% Tween-20, 0.2% BSA; association 120 s, dissociation 200 s; global fit to a 1:1 Langmuir model; Octet RED96e; in triplicate. For orientation: In BLI a coated tip is dipped into the sample, and binding shifts an interference pattern.

Series [3] has as its target ACLY peptide, phosphorylated, 3-pHis form. The series is described as above.
Series [4] addresses T1, ACLYana-3-pHis peptide (AGAG-3-pHis-AGAG).
T1 sequence (peptide, 3-phosphohistidine at position 5; biotin on the N-terminus): AGAGHAGAG
The description is as above.

The target of series [5] is ACLYana-3-pTza peptide (AGAG-3-pTza-AGAG). The description is as above.
Series [6] has as its target T2, ACLY peptide, 3-pHis form.
T2 sequence (peptide, biotin on the N-terminus; C-terminal amide; 3-phosphohistidine at position 5): VQFGHAGAC
The series can be described thus: BLI; biotinylated pHis peptides (20 nM) on streptavidin biosensors, Fab in solution at varying concentrations; 50 mM Hepes pH 8.0, 150 mM NaCl, 0.05% Tween-20, 0.2% BSA; Octet RED96e; global fit to a 1:1 Langmuir model.

Substrate in series [7]: SCS peptide, 3-pHis form
The series is described as above.

*1 amine or outer side, *2 acyl side, *3 side chain or, on linkers, in order; H or OH if unused. Where no end group is shown, it is not given here. [ ]: non-standard residue; d: D form. The star is where a group is joined. 1‑pHis = 1-phosphohistidine, O=C([C@H](Cc1cncn1P(=O)(O)O[*:3])N[*:1])[*:2]; Biotin = O=C1N[C@H]2[C@H](CS[C@H]2CCCCC(=O)*)N1

As to “1-pHis peptide: 1-pHis isomer of phosphorylated ACLYana peptide (Biotin-AGAG[1‑pHis]AGAG)”, the “hydrolysis of pHis peptide in the absence of pHis mAb incubation” value in series [1] was “faster than 3-pHis peptide”.

B1: SC44-8 Fab (Fab, V domains shown)
VH: QSVKESGRGLVQPGGSLTLTCTASGFSIDSYGFSWVRQAPGKGLEHIGYLTAGGRAFYASWAKSRSTITRNTNENTVTLKMTSLTAADTATYFCAKLGSGNPVAIWGPGTLVTVSS
VL: QVLTQTPSFTSAAVGGTVTINCQSSQSVWRNKNLAWYQQKPGQPPKRLIYAIATLDSGVPSRFSGSGSGTQFTLTISDVQCDDAATYYCVGHYGSENDAYYAFGGGTEVVVK
Take B1: the BLI signal intensity for the association in series [2] is 0.5 nm; in series [3] it was 0.5 nm; in series [4], 2 nm. In addition, the Kd (in general, the concentration at which binding is half-saturated) in series [4] was found to be 18.2 nM; in series [5], 0.235 nM; in series [6], 348 nM; in series [7], 467 nM. In addition, the koff (as a rule, a measure of how fast the partners let go of each other) in series [4] was 0.0017 s⁻¹; in series [5], 3.66e-05 s⁻¹; in series [6] it was 0.00972 s⁻¹; in series [7], 0.0137 s⁻¹. The kon (usually the second-order rate constant of association) in series [4] turned out to be 93600 M⁻¹ s⁻¹; in series [5], 156000 M⁻¹ s⁻¹; in series [6] it was 28000 M⁻¹ s⁻¹; in series [7], 29300 M⁻¹ s⁻¹.

(Values after paper PMC8017925, “Structural basis for differential recognition of phosphohistidine-containing peptides by 1-pHis and 3-pHis monoclonal antibodies” (Proceedings of the National Academy of Sciences of the …, 2021).)
